Substrate in this data set: O=P(O)(O)OC[C@@H](O)[C@@H](O)[C@H](O)[C@H](O)CO
The data set is described as follows: purified protein. Particulars: 3 mM DTT added; other conditions presumably as for EsM1Pase1short.

B1: EsM1Pase2 (Ectocarpus siliculosus) (protein)
chain: MEKAKAFDKMSILFDFDGTIGDTETPAMEVAFWELAPYLPDTTPDKLDGLMPEFVRDNAGKAFEFMVEKVDEDRKAAGLSTISEAFAAKSEPKEMLDAVDPHRKKFGLKTFAELRAPDGGEKENLLIQQKTETVDALSKIAQPCNGVPEVLAALTAAGVAFCISTTSPKPRVPASITACKLDEYFPADKVHSGESDFDPPRFKPNPSVYLKAAETEGKEPANCIAVEDSGSGVGSASNAGVGLTVGYVGASHIPDYKKDTHAEMLMSGGRAENGKGAEIVISDMTDLPKVIEFFAGEKIAGKSAPFDFPEELISSLKQPVWVHSTKA
The Km is the substrate concentration at which the rate is half of its maximum. Usually kcat stands for the maximal rate divided by the concentration of active sites. Take B1: the Km was determined as 1300 µM and the kcat amounted to 0.05 s⁻¹.

(Values after paper doi:10.1101/2020.07.01.179531v1.)
